We go through four molecules from patent US20220213198A1, “METHOD OF TREATMENT” (The Council of the Queensland Institute of Medical Research, priority 2019, published 2022).

“Also recorded” adds a separate entry of the source.

One experiment relates to MR1 / MAIT cells. The following applies: cited from earlier work; for effect on MAIT cell activation: background statement.
The test system of a further experiment is B16F10 melanoma cells. The experiment can be described thus: B16F10 experimental lung metastasis model. Format: in vivo, mouse. As for the experimental part: FIG. 2. […] (A) The schematic and timeline of expanding MAIT cells from splenocytes derived from C57BL/6 WT mice with IL-2 and 5-OP-RU, for sorting and adoptive transfer into tumor-bearing mice. (B, C) Groups of WT or MR1^−/− or Rag2cγ^−/− mice (n=5-6/group) were injected i.v. with (B) 1×10^5 or (C) 1×10^4 B16F10 melanoma cells. In some groups, sorted MAIT or T conventional cells (cT) (non-MAIT αβ^+ T cells) (2×10^5 cells/mouse) from C57BL/6 (B) WT or (C) TCRδ^−/− mice were i.v. injected into the indicated groups of mice one day before tumor inoculation. (C) One group of mice received i.v injection of media alone as a control. (B, C) On day 14 relative to tumor cell inoculation, lungs were harvested and the metastatic burden was quantified by counting colonies on the lung surface. Data presented as mean±SEM. (D) B16F10 or LWT1 melanoma cells were stimulated in vitro with DMSO or 5-OP-RU (100 nM) for 4 hours before cell surface MR1 expression was determined by flow cytometry. Groups of C57BL/6 WT or MR1^−/− mice (n=5-6/group) were i.v. injected with (E) 1×10^5 B16F10 or (F) 5×10^5 LWT1 cells melanoma cells pulsed with DMSO or 5-OP-RU (100 nM, 4 hours). Fourteen days later relative to tumor cell inoculation, lungs were harvested and the metastatic burden was quantified by counting colonies on the lung surface. Data presented as mean±SEM. Experiments performed once for (B, C, F) and three times for (D, E) with one representative experiment shown. Significant differences between groups as indicated by crossbars were determined using a one-way ANOVA followed by Tukey's post-hoc test (B, E, F), *p<0.05, **p<0.01, ****p<0.0001
FIG. 5. […] (A) Generation of three independent B16F10 cell lines knocked out for MR1 using three different MR1 sgRNA. […] Empty vector transfected B16F10 cells were used as a positive control. (B, C) Groups of C57BL/6 WT, MR1^−/− or Rag2cγ^−/− mice (n=5-6/group) were i.v. injected with either (B) 1×10^5 B16F10 vector control cells or the indicated clone of B16F10 cells lacking MR1 (sgR1, sgR2, sgR3) or (C) 1×10^4 B16F10-MR1^KO cells (sgR3 clone). On day 14 relative to tumor cell inoculation, lungs were harvested and the metastatic burden was quantified by counting colonies on the lung surface. Data presented as mean±SEM. (D) Re-expression of GFP or GFP-MR1 expressing vector into B16F10-MR1^KO (sgR3 clone). MR1 surface expressions of these cells stimulated with or without 5-OP-RU were assessed by flow cytometry. (E) Groups of C57BL/6 WT mice (n=6/group) were i.v. injected with 1×10^5 B16F10-MR1^KO (sgR3 clone) transfected with empty GFP-expressing vector or MR1-GFP-expressing vector. (F) Groups of C57BL/6 WT or MR1^−/− mice were i.v. injected with parental B16F10 cells treated with vehicle (dd H2O) or AC-6-FP (10 μM, 18 hours). On day 14 relative to tumor cell injection, lungs were harvested and the metastatic burden was quantified by counting colonies on the lung surface. Data presented as mean±SEM. Experiments performed twice for (A-E) and once for (F). Significant differences between groups as indicated by crossbars were determined by a one-way ANOVA followed by Tukey's post-hoc test (A, F), or a Mann-Whitney test (C, E), *p<0.05, **p<0.01, ****p<0.0001.
FIG. 6. […] Groups of C57BL/6 WT or MR1^−/− mice (n=5-6/group) were i.v. injected with (A, B) 1×10^5 B16F10, (C) 1×10^5 parental B16F10 or 2×10^5 B16F10-MR1^KO (sgR3 clone) melanoma cells and (D) 5×10^5 LWT1 melanoma cells or s.c injected with (E) 1×10^6 MCA1956 fibrosarcoma or (F) 1×10^6 SM1WT1 melanoma cells on day 0.

Experiment [1] concerns the target T1, surface MR1 on mouse tumor cell lines (Mus musculus, UniProt Q8HWB0).
T1 construct: endogenous in cells
The note with it: stated as property of the ligand; cited from earlier work.

For experiment [2], the target named is T2, mouse MR1 (MHC class I-related protein 1) (mouse, UniProt Q8HWB0 19-341).
T2 construct: whole, on cells; also called surface MR1
T2 sequence (Q8HWB0 19-341): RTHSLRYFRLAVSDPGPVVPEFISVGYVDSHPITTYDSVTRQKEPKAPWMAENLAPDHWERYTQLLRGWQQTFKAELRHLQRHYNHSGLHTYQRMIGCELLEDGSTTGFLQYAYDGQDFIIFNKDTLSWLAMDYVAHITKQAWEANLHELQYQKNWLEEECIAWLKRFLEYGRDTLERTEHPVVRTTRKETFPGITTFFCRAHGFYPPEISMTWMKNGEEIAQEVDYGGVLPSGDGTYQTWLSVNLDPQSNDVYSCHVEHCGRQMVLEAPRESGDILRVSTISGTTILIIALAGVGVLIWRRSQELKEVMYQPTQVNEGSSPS
The experiment can be described thus: flow cytometry on mouse tumor cell lines with or without 5-OP-RU. An excerpt:
(§1) MR1 mRNA transcripts are present in different tissues and cell lines from mice and humans. […] In contrast, whether mouse tumor cell lines express MR1 has not previously been examined. […] Basally, the level of MR1 was almost undetectable on the surface of all tumor cell lines examined (FIG. 2D). […] The kinetics of MR1 upregulation on B16F10 cells was similar to what was previously reported for human C1R cells (B-cell lymphoblastoid cell line) (McWilliam et al., 2016). […] Next, the impact of up-regulation of MR1 on B16F10 or LWT1 prior to i.v injection to WT or MR1−/− mice on the number of lung metastases was assessed.
A general note: In flow cytometry, cells or beads pass a laser one at a time.

Experiment [3] concerns the target T3, human MR1 (MHC class I-related protein 1) (human, UniProt Q95460 23-341).
T3 construct: The assays used endogenous MR1 of human cell lines (flow cytometry) and of FFPE tumor sections (IHC); no signal peptide limits are stated
The experiment can be described thus: flow cytometry; human cell lines with or without 5-OP-RU (data not shown).

In another experiment the target is mouse MR1 (Mus musculus, UniProt Q8HWB0). In words: Anti-MR1 reactivity with mouse MR1. The following applies: flow cytometry antibody. In kind it is binding.
Sequence of mouse MR1 (Q8HWB0 19-341): as above
Sequence of mouse MR1 (P01887 21-119 partner): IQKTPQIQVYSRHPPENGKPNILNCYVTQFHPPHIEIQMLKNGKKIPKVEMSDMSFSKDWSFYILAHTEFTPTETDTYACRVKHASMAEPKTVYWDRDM
Description: as §1

In a further experiment the target is human MR1 (Homo sapiens, UniProt Q95460). The experiment can be described thus: Anti-MR1 reactivity with human MR1. Format: binding. The following applies: flow cytometry antibody.
Sequence of human MR1 (Q95460 23-341): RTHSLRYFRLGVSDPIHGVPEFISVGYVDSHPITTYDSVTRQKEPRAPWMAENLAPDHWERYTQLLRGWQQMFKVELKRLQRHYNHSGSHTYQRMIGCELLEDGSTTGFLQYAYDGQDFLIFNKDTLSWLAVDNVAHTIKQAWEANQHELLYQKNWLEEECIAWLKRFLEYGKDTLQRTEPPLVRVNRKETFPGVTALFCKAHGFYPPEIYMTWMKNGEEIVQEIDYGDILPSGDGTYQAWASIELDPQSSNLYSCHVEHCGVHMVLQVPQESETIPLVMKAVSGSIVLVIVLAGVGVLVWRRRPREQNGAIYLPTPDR
Sequence of human MR1 (P61769 21-119 partner): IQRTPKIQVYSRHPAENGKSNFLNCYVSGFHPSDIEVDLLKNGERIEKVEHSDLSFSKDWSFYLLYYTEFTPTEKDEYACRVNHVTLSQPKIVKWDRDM
Description: as §1

T1 sequence (Q8HWB0 19-341): as the sequence (Q8HWB0 19-341) above
T1 sequence (P01887 21-119 partner): as the sequence (P01887 21-119 partner) above
T3 sequence (Q95460 23-341 limits assumed): as the sequence (Q95460 23-341) above

`Nc1nc2ncc(C=O)nc2c(=O)[nH]1` [6-FP, 6-formylpterin]: the “effect on MAIT cell activation” value in the experiment with MR1 / MAIT cells is reported as “inhibit MAIT cell activation”.

In the case of `CC(=O)Nc1nc2ncc(C=O)nc2c(=O)[nH]1` [AC-6-FP, acetyl 6-formylpterin], the “number of lung metastases” value in the experiment on B16F10 melanoma cells (WT mice injected with B16F10 pre-treated 10 μM 18 hours, vs vehicle-treated, day 14) is given as “decrease in metastases numbers”; in the experiment with B16F10 melanoma cells (WT mice injected with B16F10 pre-treated 10 μM 18 hours, vs vehicle-treated, day 14, listed as Ac-6-FP), “dramatically reduced”. Moreover, the MR1 expression result in experiment [1] is given as “upregulates MR1”. In addition, the “effect on MAIT cell activation” value in the experiment with MR1 / MAIT cells is “does not activate MAIT cells; also recorded: inhibit MAIT cell activation”.

B1: anti-MR1 antibody 26.5 (antibody, V domains shown)
VH: QVQLQQSGTELVRPGTSVKVSCKASGYAFSNYLIEWIKQRPGQGLEWIGVINPGSGGISYNEKFKGKATLTADKSSSTAYMQLSSLTSEDSAVYFCARWGYLYYYTMDHWGQGTSVTVSS
VL: DVLMTQTPLSLPVSLGDQASISCRSSQSIVQGSGNTFLDWYLQKPGQSPKVLIYKVSNRFSGVPARFSGSGSGTDFTLKISRVEAEDLGVYYCFQGSHVPYTFGGGTKLEIK
B1: the binding result in experiment [2] and in experiment [3] was “binds” each time.

B2: 26.5: anti-MR1 blocking antibody from hybridoma clone 26.5, IgG2a isotype; heavy chain SEQ ID NO: 4, light chain SEQ ID NO: 8 (antibody, listed as Mus musculus, V domains shown)
VH: MEWSRVFIFLLSITAGVHSQVQLQQSGTELVRPGTSVKVSCKASGYAFSNYLIEWIKQRPGQGLEWIGVINPGSGGISYNEKFKGKATLTADKSSSTAYMQLSSLTSEDSAVYFCARWGYLYYYTMDHWGQGTSVTVSS
VL: MKLPVRLLVLMFWIPASSSDVLMTQTPLSLPVSLGDQASISCRSSQSIVQGSGNTFLDWYLQKPGQSPKVLIYKVSNRFSGVPARFSGSGSGTDFTLKISRVEAEDLGVYYCFQGSHVPYTFGGGTKLEIK
With B2, in the experiment on B16F10 melanoma cells (B16F10 tumor-bearing MR1-/- mice, antibody vs cIg), the “number of lung metastases” value was “no further decrease”. In addition, the B16F10 lung metastases entry in the experiment on B16F10 melanoma cells (WT mice, 250 μg/mouse i.p. days -1, 0, 3 and 7, vs cIg, day 14) is given as “effectively suppressed lung metastases”. In the experiment with B16F10 melanoma cells (WT mice, 250 μg/mouse i.p., days -1, 0, 3 vs days -1, 0, 3 and 7), the “suppression of B16F10 lung metastases, three vs four doses” value is “more effective when four doses”. Moreover, the “reactivity with mouse MR1” value with mouse MR1 is “cross-reacts with both mouse and human MR1”. For the same molecule, the “reactivity with human MR1” value with human MR1 was “cross-reacts with both mouse and human MR1”. In the experiment with MR1 / MAIT cells (stated as known), the “blocking of MAIT cell interaction with MR1” value is given as “block MAIT cells from interacting with MR1”.
